According to article PMC7486785 (Proceedings of the National Academy of Sciences of the …, 2020):
Positions count from the first letter of the chain named. Names and notes keep the numbering of the source. One block for each molecule: values may come before it.

How the values were obtained:
Duck egg lysozyme (DEL) [1] = assay: bio-layer interferometry; conditions: parent: est. 2.5e7 M-1; read off a plot
[2] = biological target: VH substitutions L4F, S31N, Y33H, and S56N; assay: BLI; BLItz; biotinylated Fab loaded on streptavidin biosensors, lysozyme proteins in solution at a range of molar concentrations; PBS (sensors rehydrated in PBS with 0.1% BSA); global fit, 1:1 Fab-lysozyme interaction; affinities printed as 1/KD
[3] = biological target: T1, Duck egg lysozyme (DEL), D65N + N103D double mutant of the DEL-II isoform (Anas platyrhynchos, DEL-II double mutant, strain); assay: BLI; BLItz (ForteBio); biotinylated Hy10 Fab variant immobilised on streptavidin biosensors (rehydrated in PBS with 0.1% wt/vol BSA); soluble monomeric lysozyme antigen as analyte at a range of concentrations; global fit, 1:1 Fab-lysozyme interaction; conditions: both partners purified
T1 construct: duck egg lysozyme, DEL-II isoform, D65N + N103D double mutant; differs from HEL3X at 25 amino acids; source: Pichia pastoris, secreted, purified from culture supernatant (ion exchange)
T1 chain: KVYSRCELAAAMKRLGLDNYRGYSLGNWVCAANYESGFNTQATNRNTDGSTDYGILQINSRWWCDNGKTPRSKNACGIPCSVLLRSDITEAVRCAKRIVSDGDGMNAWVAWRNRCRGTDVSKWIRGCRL

Duck egg lysozyme (DEL) [4] = biological target: T2, Duck egg lysozyme (DEL) (Anas platyrhynchos, DEL-II double mutant, strain); assay: BLI; BLItz; biotinylated Fab loaded on streptavidin biosensors, lysozyme proteins in solution at a range of molar concentrations; PBS (sensors rehydrated in PBS with 0.1% BSA); global fit, 1:1 Fab-lysozyme interaction; affinities printed as 1/KD; conditions: both partners purified
T2 construct: duck egg lysozyme, DEL-II isoform, D65N + N103D double mutant; source: P. pastoris, secreted, purified (ion exchange)
T2 chain: T1 chain

- Ka (Duck egg lysozyme (DEL) [1]): < 100000 M⁻¹
Molecule: Hy10 Fab S52N

- fold decrease in affinity against Hy10 [2]: 3 to 39 fold
Molecule: HEL^3X self-lysozyme (from UniProt P00698 19-147) (natural protein)

- Ka [3]: 2.49e+07 M⁻¹
- Kd [3]: 40.1 nM
B1: HyHEL10 (Hy10) Fab, WT founder (Fab, V domains shown)
VH: DVQLQESGPSLVKPSQTLSLTCSVTGDSITSDYWSWIRKFPGNRLEYMGYVSYSGSTYYNPSLKSRISITRDTSKNQYYLDLNSVTTEDTATYYCANWDGDYWGQGTLVTVSA
VL: DIVLTQSPATLSVTPGNSVSLSCRASQSIGNNLHWYQQKSHESPRLLIKYASQSISGIPSRFSGSGSGTDFTLSINSVETEDFGMYFCQQSNSWPYTFGGGTKLEIK
notes: heavy chain of Hy10 Fab; light chain of Hy10 Fab; also called Hy10WT; source: Expi293, transient (pCEP4), purified (Talon resin, gel filtration)

- Ka [3]: 9.35e+07 M⁻¹
- Kd [3]: 10.7 nM
B2: Hy10 Fab Y58F (Fab, V domains shown)
VH: B1 VH with Y58F
VL: B1 VL
notes: as the heavy chain of Dm5 with the stated changes; as the light chain of Dm5; source: Expi293, transient (pCEP4), purified (Talon resin, gel filtration)

- Ka [3]: 3.8e+08 M⁻¹
- Kd [3]: 2.62 nM
B3: Hy10 Fab S52T/Y58F (Fab, V domains shown)
VH: B1 VH with S52T, Y58F
VL: B1 VL
notes: as for B2

- Ka [3]: 1.99e+09 M⁻¹
- Kd [3]: 0.502 nM
B4: Hy10 Fab S52T/Y53F/Y58F (Fab, V domains shown)
VH: B1 VH with S52T, Y53F, Y58F
VL: B1 VL
notes: as for B2

- Ka [3]: 9.6e+06 M⁻¹
- Kd [3]: 104 nM
B5: Hy10 Fab S31N (Fab, V domains shown)
VH: B1 VH with S31N
VL: B1 VL
notes: as for B2

- Ka [3]: 1.68e+06 M⁻¹
- Kd [3]: 594 nM
B6: Hy10 Fab Y33H (Fab, V domains shown)
VH: B1 VH with Y33H
VL: B1 VL
notes: as the heavy chain of Dm5 with the stated changes; as the light chain of Dm5; also called Hy10-Y33H; source: Expi293, transient (pCEP4), purified (Talon resin, gel filtration)

- Ka (Duck egg lysozyme (DEL) [4]): 2.5e+07 M⁻¹
B7: Hy10 Fab (Fab, V domains shown)
VH: B1 VH
VL: B1 VL
notes: Hy10 Fab heavy chain; Hy10 Fab light chain; Biotinylated only for BLI, not for the crystals; also called HyHEL10; WT founder antibody; source: Expi293, transient, purified (Talon, gel filtration)

- Ka [3]: 5.92e+08 M⁻¹
- Kd [3]: 1.69 nM
B8: Hy10 Fab I29F/S52T/Y58F (Fab, V domains shown)
VH: B1 VH with I29F, S52T, Y58F
VL: B1 VL
notes: as for B2

- Ka [3]: 3.73e+07 M⁻¹
- Kd [3]: 26.8 nM
B9: Hy10 Fab Y53F/S56R (Fab, V domains shown)
VH: B1 VH with Y53F, S56R
VL: B1 VL
notes: as for B2

- Ka [3]: 1.2e+08 M⁻¹
- Kd [3]: 8.35 nM
B10: Hy10 Fab Y53F (Fab, V domains shown)
VH: B1 VH with Y53F
VL: B1 VL
notes: as for B2

- Ka [3]: 3.25e+06 M⁻¹
- Kd [3]: 308 nM
B11: Hy10 Fab L4F (Fab, V domains shown)
VH: B1 VH with L4F
VL: B1 VL
notes: as for B2

- Ka [3]: 2.81e+08 M⁻¹
- Kd [3]: 3.56 nM
B12: Hy10 Fab S52T/Y53F (Fab, V domains shown)
VH: B1 VH with S52T, Y53F
VL: B1 VL
notes: as for B2

- Ka [3]: 6.1e+09 M⁻¹
- Kd [3]: 0.164 nM
B13: Hy10 Fab I29F/S52T/Y53F (Fab, V domains shown)
VH: B1 VH with I29F, S52T, Y53F
VL: B1 VL
notes: as for B2

- Ka [3]: 2.98e+07 M⁻¹
- Kd [3]: 33.5 nM
B14: Hy10 Fab S52T (Fab, V domains shown)
VH: B1 VH with S52T
VL: B1 VL
notes: as for B2

- Ka [3]: 1.73e+08 M⁻¹
- Kd [3]: 5.79 nM
B15: Hy10 Fab I29F/S52T (Fab, V domains shown)
VH: B1 VH with I29F, S52T
VL: B1 VL
notes: as for B2

- Ka [3]: 6.37e+07 M⁻¹
- Kd [3]: 15.7 nM
B16: Hy10 Fab I29F (Fab, V domains shown)
VH: B1 VH with I29F
VL: B1 VL
notes: as for B2

- Ka [3]: 1.13e+08 M⁻¹
- Kd [3]: 8.85 nM
B17: Hy10 Fab Y53F/Y58F (Fab, V domains shown)
VH: B1 VH with Y53F, Y58F
VL: B1 VL
notes: as for B2

- Ka [3]: 7.51e+09 M⁻¹
- Kd [3]: 0.133 nM
B18: Hy10 Fab I29F/S52T/Y53F/Y58F (Fab, V domains shown)
VH: B1 VH with I29F, S52T, Y53F, Y58F
VL: B1 VL
notes: as for B2

- Ka [3]: 5.8e+06 M⁻¹
- Kd [3]: 172 nM
B19: Hy10 Fab L4F/Y33H (Fab, V domains shown)
VH: B1 VH with L4F, Y33H
VL: B1 VL
notes: as for B2

- Ka [3]: 4.41e+06 M⁻¹
- Kd [3]: 227 nM
B20: Hy10 Fab S56R (Fab, V domains shown)
VH: B1 VH with S56R
VL: B1 VL
notes: as the heavy chain of Dm5 with the stated changes; as the light chain of Dm5; also called Hy10-S56R; source: Expi293, transient (pCEP4), purified (Talon resin, gel filtration)
